Read-outs that look alike come from different tables or passages of the source. No end group written: not given here.
Experiments:
[1] = system: birch pollen allergic volunteers; conditions: human, in vivo
Description: (§1) The allergenic response of the peptides was evaluated in vivo by SPT with each of the 5 peptides (AllerT1, AllerT2, AllerT3, AllerT4 and AllerT5) and with the 2 sets (AllerT1-3 and AllerT4-5) on all patients. For each peptide, a 20 μl drop was applied on the forearm at 3 different concentrations (10, 1 and 0.1 μM). […] The weal diameter was evaluated by taking the maximal diameter. SPT was considered positive when the weal diameter was 4 mm or more with an erythema (Hoffmann, A. et al., J Allergy Clin Immunol, 99(2):227-32 (1997). Reactions resulting in a weal diameter below 4 mm, while exceeding 2 mm, were also recorded and classified as “dubious”.

[2] = system: basophils (IgE-positive cells) in blood from a birch pollen allergic donor; assay: Basophil degranulation test (Basotest); format: cell-based, human; conditions: blood of birch pollen allergic donor; r Bet v 1 0.0025-25 nano-molar, COPs starting 10 fold higher; FIG. 4
Description: Basotest® (ORPEGEN Pharma Heidelberg, Germany) was used for the quantitative determination of in vitro basophile degranulation. Heparinized blood (100 μl) from a birch pollen allergic donor was first incubated with a stimulation buffer for 20 min at 37° C., and then with or without chemotactic peptide formylmethionylleucylphenylalanine (fMLP) as positive and negative controls respectively. Aliquots of blood were incubated in parallel with 100 μl allergen solution diluted in a saline solution for 20 min at 37° C. A dose response curve was performed with 25, 2.5, 0.25, 0.025 and 0.0025 nano-molar r Bet v 1 as well as starting 10 fold higher with AllerT mixes (AllerT1-T3, AllerT4-5 and AllerT6-8). The activation process was stopped by incubating the blood samples at 4° C. for 10 min. The samples were then incubated for 20 min at +4° C. with 20 μl of phycoerythrin (PE)-conjugated anti-IgE and fluorescein isothyocyanate (FITC)-conjugated anti-gp53 (CD63). Erythrocytes were subsequently removed by the addition of 2 ml of lysing solution (Becton-Dickinson). Cells were washed twice with PBS solution and resuspended in 200 μl of PBS solution and analyzed within 1 h by cytofluorimetry (FASCalibur, BectonDickinson). The basophile population was gated on the PE anti-IgE positive cells and the expression of gp53 (CD63) was analyzed on this population. […]

Bet v 1 specific IgE = assay: Competition ELISA: IgE binding of COPs compared to r Bet v 1; design: species or system human; conditions: for competition for IgE binding to coated r Bet v 1: serial dilutions starting at 10 μM pre-incubated with serum of birch pollen allergic subjects; for competition with Bet v 1 for IgE binding / residual IgE binding: sera from three allergic patients (data not shown)
Description: Recombinant Bet v 1 at 0.5 μg/ml (r Bet v 1 obtained from Biomay, Austria) was coated overnight on 96-well Nunc Maxisorp® immunoplates (Life Technologies, Basel, Switzerland). After blocking with 1% BSA, ten-fold dilutions of patient serum were added. […] The sera of three allergic patients were selected for high IgE level and clear signal over background and used to test for competition with the peptides. Serial dilutions of each COP, namely AllerT1, AllerT2, AllerT3, AllerT4, AllerT5, AllerT6, AllerT7 and AllerT8, or mixtures of AllerT1-3, AllerT4-5 and AllerT6-8, starting at 10 μM, were pre-incubated with the three selected sera overnight at 4° C. Sera were then incubated on r Bet v 1 coated 96-well plates and residual IgE binding was determined as described above. r Bet v 1 dilutions were used as control for inhibition, whereas BSA was used as control for possible non-specific inhibition.

[3] = system: birch pollen allergic volunteers; assay: Skin prick tests (SPT) of allergic patients; conditions: for Positive skin reactions (subjects) / Reactivity lower than defined threshold (dubious) (subjects): 20 volunteers
Description: as §1

[4] = dilution 1:1, weal 4 mm or more with erythema

Row | Molecule | Positive skin reactions (subjects) [1] | basophil degranulation (IgE-positive cells expressing CD63) [2] | IC50 (Bet v 1 specific IgE; depending on the serum of the donor, FIG. 1, read-out: concentration competing with IgE present in the sera (50% inhibition)) [µM] | SPT result ([3]; birch pollen extract 100,000 SQ, recombinant Bet v 1 1 μM) | Positive skin reactions (subjects) [3, 4] | Positive skin reactions (subjects) ([3]; dilution 1:10) | Positive skin reactions (subjects) ([3]; dilution 1:100) | competition for IgE binding to coated r Bet v 1 (Bet v 1 specific IgE; FIG. 1) | Reactivity lower than defined threshold (dubious) (subjects) ([3]; dilution 1:1, weal below 4 mm) | Reactivity lower than defined threshold (dubious) (subjects) ([3]; dilution 1:10) | Reactivity lower than defined threshold (dubious) (subjects) ([3]; dilution 1:100) | competition with Bet v 1 for IgE binding / residual IgE binding (Bet v 1 specific IgE)
1 | VATPDGGSILKISNKYHTKGDHEVKAEQVKASKEMGETLLRAVESYLLAHSDAYN [AllerT3] | 0 | – | – | – | – | – | – | – | – | – | – | –
2 | CC[C@H](C)[C@H](NC(=O)[C@H](C)NC(=O)[C@H](CCC(N)=O)NC(=O)[C@@H]1CCCN1C(=O)[C@H](C)NC(=O)[C@@H](NC(=O)[C@H](CCCCN)NC(=O)[C@@H]1CCCN1C(=O)[C@H](Cc1ccccc1)NC(=O)[C@H](CC(C)C)NC(=O)[C@H](CC(N)=O)NC(=O)[C@H](CC(=O)O)NC(=O)CNC(=O)[C@H](CC(=O)O)NC(=O)[C@H](CC(C)C)NC(=O)[C@@H](NC(=O)[C@H](Cc1ccccc1)NC(=O)[C@H](C)NC(=O)[C@H](CCCCN)NC(=O)[C@H](Cc1ccccc1)NC(=O)[C@H](CC(C)C)NC(=O)[C@H](CCCNC(=N)N)NC(=O)[C@H](C)NC(=O)[C@H](C)NC(=O)[C@@H]1CCCN1C(=O)[C@@H](NC(=O)[C@@H](NC(=O)[C@H](CO)NC(=O)[C@@H](NC(=O)[C@@H](NC(=O)[C@H](CCC(=O)O)NC(=O)[C@@H](NC(=O)[C@H](CCC(=O)O)NC(=O)[C@H](Cc1ccc(O)cc1)NC(=O)[C@H](CC(N)=O)NC(=O)[C@H](Cc1ccccc1)NC(=O)[C@@H](NC(=O)CN)C(C)C)[C@@H](C)O)[C@@H](C)O)[C@@H](C)O)C(C)C)[C@@H](C)CC)[C@@H](C)CC)C(C)C)C(=O)N[C@@H](CO)C(=O)N[C@@H](CO)C(=O)N[C@H](C(=O)N[C@@H](CCC(=O)O)C(=O)N[C@@H](CC(N)=O)C(=O)N[C@H](C(=O)N[C@@H](CCC(=O)O)C(=O)NCC(=O)N[C@@H](CC(N)=O)C(=O)NCC(=O)NCC(=O)O)[C@@H](C)CC)C(C)C [AllerT1] | 0 | – | – | – | – | – | – | – | – | – | – | –
3 | r Bet v 1: Purified recombinant Bet v 1, birch pollen major allergen, purchased from BIOMAY; SEQ ID 9, Swissprot P15494 (protein) MGVFNYETETTSVIPAARLFKAFILDGDNLFPKVAPQAISSVENIEGNGGPGTIKKISFPEGFPFKYVKDRVDEVDHTNFKYNYSVIEGGPIGDTLEKISNEIKIVATPDGGSILKISNKYHTKGDHEVKAEQVKASKEMGETLLRAVESYLLAHSDAYN | – | concentration dependent manner | 0.0001 to 10 | positive in all volunteers | 20 | 16 | 2 | – | – | – | – | –
4 | AllerT2: SEQ ID NO: 2, aa 48-118 of SEQ ID 9 (Bet v 1) contiguous overlapping peptide (peptide) NGGPGTIKKISFPEGFPFKYVKDRVDEVDHTNFKYNYSVIEGGPIGDTLEKISNEIKIVATPDGGSILKIS | – | – | – | – | 0 | 0 | 0 | no competition | 0 | 0 | 0 | –
5 | AllerT4: SEQ ID NO: 4, aa 2-85 of SEQ ID 9 (Bet v 1) contiguous overlapping peptide (peptide) GVFNYETETTSVIPAARLFKAFILDGDNLFPKVAPQAISSVENIEGNGGPGTIKKISFPEGFPFKYVKDRVDEVDHTNFKYNYS | – | – | – | – | 0 | 0 | 0 | comparable result | 0 | 0 | 1 | do not show such binding
6 | AllerT5: SEQ ID NO: 5, aa 65-160 of SEQ ID 9 (Bet v 1) contiguous overlapping peptide (peptide) FKYVKDRVDEVDHTNFKYNYSVIEGGPIGDTLEKISNEIKIVATPDGGSILKISNKYHTKGDHEVKAEQVKASKEMGETLLRAVESYLLAHSDAYN | – | – | – | – | 0 | 0 | 0 | comparable result | 1 | 0 | 0 | do not show such binding

Source: patent publication US8343503B2, “Contiguous overlapping peptides for treatment of birch pollen allergy” (Anergis S.A., priority 2009, dated 2013)
